These results are taken from WO2021180110A1 (dated 2021).

For assay [1], the target named is T1, cyclophilin A (CyPA) (UniProt P62937 1-165).
Assay [2] concerns the target T1, cyclophilin A (CyPA). In words: ELISA; format not described. For orientation: An ELISA detects its analyte on a solid surface through an enzyme-linked reagent.
A further assay deals with T2, CD147-his fusion protein (human, UniProt P35613 22-205).
T2 sequence: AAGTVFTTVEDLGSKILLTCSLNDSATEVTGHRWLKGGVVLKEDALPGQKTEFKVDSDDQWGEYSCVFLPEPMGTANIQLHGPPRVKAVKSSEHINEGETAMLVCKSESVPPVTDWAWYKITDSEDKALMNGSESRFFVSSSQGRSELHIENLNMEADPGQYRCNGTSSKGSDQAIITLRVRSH

In another assay the target is T3, CD147-Tag fusion protein (human, UniProt P35613-2 22-205).
T3 sequence (looked up): T2 sequence

Assay [3] concerns the target CD147 on Vero E6 host cells. Briefly: cell-based or functional assay.

T1 sequence (P62937 whole entry): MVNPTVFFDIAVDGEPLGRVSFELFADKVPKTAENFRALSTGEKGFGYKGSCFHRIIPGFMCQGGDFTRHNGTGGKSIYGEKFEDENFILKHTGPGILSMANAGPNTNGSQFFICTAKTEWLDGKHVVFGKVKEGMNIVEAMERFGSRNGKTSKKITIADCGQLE

B1: CD147 (receptor, human, UniProt P35613-2 22-205, looked up)
chain: T2 sequence
notes: also called BASIGIN; EMMPRIN
For B1, in the assay with cyclophilin A (CyPA) [1], the Kd is about 8.7 µM and the koff stood at 0.0008 s⁻¹. Further, a half-maximal response with cyclophilin A (CyPA) [2] (EC50) required 135 µg/mL.

B2: anti-human BASIGIN humanized antibody (antibody, V domains shown)
VH: EVQLVESGGGLVQPGGSLRLSCAASGFTFSNFWMNWVRQAPGKGLEWVSEIRLKSNNYATHYAESVKGRFTISRDDSKNTLYLQMNSLKTEDTAVYYCTSYDYEYWGQGTLVTVSA
VL: DIQMTQSPSTLSASVGDRVTLSCKASENVGTYVSWYQQKPGKAPKLLIYGASNRYTGVPSRFTGSGSGTDFTLTISSLQPEDFATYYCGQSYSYPFTFGSGTKLEIK
Consider B2, for which the results for the IC50 with CD147-his fusion protein and in the assay with CD147-Tag fusion protein were 16.4 µg/mL and 1.28 µg/mL, respectively. Also, the “EC50 of inhibition of cytopathic effect of COVID-19 virus on Vero E6 cells” value in assay [3] came out at 36 µg/mL.

By Kd is commonly meant the equilibrium constant for the complex coming apart. Broadly, the koff is the rate constant with which the complex falls apart. The EC50 is the concentration giving half of the maximal effect. In general, IC50 refers to the concentration that gives 50% inhibition.
